# B1: RPT-6::VC155 [C. elegans] / ELT-2::VN173 [C. elegans] (parent complex)
# chain 1: MAPPASTASSADPSKPTAQKLTEESDEKTLRKYFSTKVDDAQQKVADKSQNVRRLQAQRNELNTKVRMLKEELQQLHEQGSYVGEVSKAMDKKKVLVKVHPEGKYVVDVDKSIDINSLNTGARVALRADSYALHKLLPNKVDPLVSLMMVEKVPDSTYEMVGGLDKQIKEIKEVIELPVKHPELFDALGIAQPKGVLLFGPPGTGKTLLARAVAHHTECTFIRVSGSELVQKFIGEGARMVRELFVMAREHAPSIIFMDEIDSIGSSRVEGSSGGDSEVQRTMLELLNQLDGFEATKNIKVIMATNRIDILDPALLRPGRIDRKIEFPAPDEKARADILKIHSRKMNLMRGINMAKIAEQIPGASGAEVKSVCTEAGMFALRERRIHVTQEDFEMAVGKVMQKDSEKNMSIKKLWK
# chain 2: MDNNYNDNVNGWAEMEPSQPMGGLRLPTQNMDPPEQNNESQLSELPRMKIDNDYASPIERQSVITSGTNNYEPKVETVTSFFHTGIDYSNFGMLDQTTMQPFYPLYSGIPVNTLGTFSGYTNSIYDKPSLYDPSIPTINIPSTYPTVAPTYECVKCSQSCGAGMKAVNGGMMCVNCSTPKTTYSPPVAYSTSLGQPPILEIPSEQPTAKIAKQSSKKSSSSNRGSNGSASRRQGLVCSNCNGTNTTLWRRNAEGDPVCNACGLYFKLHHIPRPTSMKKEGALQTRKRKSKSGDSSTPSTSRARERKFERASSSTEKAQRSSNRRAGSAKADRELSTAAVAAATATYVSHADLYPVSSAAVTLPDQTYSNYYQWNTAATAGLMMVPNDQNYVYAATNYQTGLRPADNIQVHVMPVQDDETKAAARDLEAVDGDS
# Variants of: B1
# Assay: bimolecular fluorescence complementation (BiFC) in vivo, quantified with Copas Biosort; three independent experiments combined, minimum of 399 animals in each case; fluorescence observed twelve hours after heat shock; parent: 750; read off a plot
row,Variant,response
1,chain 1 MAPPASTASSADPSKPTAQKLTEESDEKTLRKYFSTKVDDAQQKVADKSQNVRRLQAQRNELNTKVRMLKEELQQLHEQGSYVGEVSKAMDKKKVLVKVHPEGKYVVDVDKSIDINSLNTGARVALRADSYALHKLLPNKVDPLVSLMMVEKVPDSTYEMVGGLDKQIKEIKEVIELPVKHPELFDALGIAQPKGVLLFGPPGTGRTLLARAVAHHTECTFIRVSGSELVQKFIGEGARMVRELFVMAREHAPSIIFMDEIDSIGSSRVEGSSGGDSEVQRTMLELLNQLDGFEATKNIKVIMATNRIDILDPALLRPGRIDRKIEFPAPDEKARADILKIHSRKMNLMRGINMAKIAEQIPGASGAEVKSVCTEAGMFALRERRIHVTQEDFEMAVGKVMQKDSEKNMSIKKLWK [chain 1 K206R],~390 Fluorescence/TOF
